The target in the assay is T1, neprilysin (Mus musculus, UniProt Q61391).
T1 construct: endogenous in cells; host or cells: mouse fetal cerebral cortex and hippocampus primary cultured nerve cells, paraformaldehyde-fixed
T1 sequence (Q61391 1-750): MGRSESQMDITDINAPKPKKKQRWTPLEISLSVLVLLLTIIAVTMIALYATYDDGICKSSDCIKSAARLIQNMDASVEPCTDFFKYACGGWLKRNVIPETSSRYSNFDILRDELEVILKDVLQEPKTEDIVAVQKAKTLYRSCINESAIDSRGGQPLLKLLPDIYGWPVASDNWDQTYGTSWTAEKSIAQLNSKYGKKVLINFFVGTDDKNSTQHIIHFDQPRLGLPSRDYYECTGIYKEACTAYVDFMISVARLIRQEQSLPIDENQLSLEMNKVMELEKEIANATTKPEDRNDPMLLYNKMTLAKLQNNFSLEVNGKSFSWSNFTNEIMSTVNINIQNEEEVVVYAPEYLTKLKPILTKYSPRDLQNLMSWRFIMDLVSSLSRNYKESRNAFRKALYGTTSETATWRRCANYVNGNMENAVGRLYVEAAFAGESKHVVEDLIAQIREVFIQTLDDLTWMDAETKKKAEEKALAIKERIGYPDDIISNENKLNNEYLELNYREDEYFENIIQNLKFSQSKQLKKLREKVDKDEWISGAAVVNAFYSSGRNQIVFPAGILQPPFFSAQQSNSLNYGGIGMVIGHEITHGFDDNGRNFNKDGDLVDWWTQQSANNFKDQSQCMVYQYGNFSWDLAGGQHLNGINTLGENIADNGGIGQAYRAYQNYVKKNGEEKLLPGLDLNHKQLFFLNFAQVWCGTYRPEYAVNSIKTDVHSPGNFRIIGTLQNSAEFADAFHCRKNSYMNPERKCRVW
The assay is described as follows: Neprilysin activity staining in mouse primary cultured nerve cells (fluorescent substrate, confocal microscopy). In kind it is cell-based. The settings on record: for action against the neprilysin activity or its gene expression: general statement in the description.

Method: Nerve cells were prepared from the mouse fetal cerebral cortex and hippocampus and seeded on a poly-L-coated chamber slide (8 chambers, IWAKI 4730-040) at a density of 1×10^5 cells/chamber, followed by incubation for 7 days. After completion of the incubation, the cells were washed with TBS (pH 7.4) and fixed for 12.5 minutes at 20° C. with a paraformaldehyde solution (1.5% paraformaldehyde/50 mM phosphate buffer, pH 6.8). After the cells were washed twice with TBS, 0.2 ml of substrate solution (glutaryl-alanyl-alanyl-phenylalanyl-4-methoxy-2-naphthylamide, Sigma G3769, fmal concentration: 0.5 mM; 0.05 M Tris-HCI buffer, pH 7.4 (pH was adjusted to 7.4 at 4° C.)) was added to the cells, followed by reacting at 4° C. for 48 hours. After completion of the reaction, 25 μl of the solution mixture of aminopeptidase (Sigma L-5006, final concentration: 20.4 μg/ml) and phosphoramidone (Peptide Inst. 4082, final concentration: 10 μM) and 25 μl of nitrosalicylaldehyde solution (6 mM) were further added thereto sequentially. The mixture was reacted at 37° C. for 30 minutes. The reaction was completed by washing the cells twice with TBS. Using argon laser and a filter for rhodamine, positive stained images were observed under a confocal laser scanning microscope (FIG. 1). When the substrate is degraded by neprilysin, an insoluble fluorescent reaction product is formed so that the sites where neprilysin is present are visualized in yellow.
Nerve cells were prepared from the mouse fetal cerebral cortex and hippocampus, followed by incubation as in EXAMPLE 1. On day 7 of the incubation, somatostatin (somatostatin 14 and 28, final concentration: 1 μM) was added to the cells, followed by incubation for further 24 hours. […] To investigate in further detail, these stained images were quantified by image analysis software (Nippon Roper Co., Ltd., MetaVue) and examined.

As to “PACAP: pituitary adenylate cyclase-activating polypeptide, publicly known neuropeptide”, the “action against the neprilysin activity or its gene expression” value is “inhibitorily acts”. Besides, the “neprilysin activity in the nerve cells compared to control added with no peptide” value (mouse fetal cerebral cortex and hippocampus primary nerve cells, peptide final concentration 1 μM, 24 hours, stained images observed) is given as “markedly decreased”.

Take “VIP: vasoactive intestinal peptide, publicly known neuropeptide”: the “action against the neprilysin activity or its gene expression” value is given as “inhibitorily acts”.

Values taken from patent publication US7572574B2, “Method of measuring neprilysin activity” (Riken, priority 2002, dated 2009).
